Experimental data as given in patent US12559743, “Engineered guide scaffolds” (Scribe Therapeutics Inc.).

Target: T1, CasX 491 (engineered CasX)
T1 chain: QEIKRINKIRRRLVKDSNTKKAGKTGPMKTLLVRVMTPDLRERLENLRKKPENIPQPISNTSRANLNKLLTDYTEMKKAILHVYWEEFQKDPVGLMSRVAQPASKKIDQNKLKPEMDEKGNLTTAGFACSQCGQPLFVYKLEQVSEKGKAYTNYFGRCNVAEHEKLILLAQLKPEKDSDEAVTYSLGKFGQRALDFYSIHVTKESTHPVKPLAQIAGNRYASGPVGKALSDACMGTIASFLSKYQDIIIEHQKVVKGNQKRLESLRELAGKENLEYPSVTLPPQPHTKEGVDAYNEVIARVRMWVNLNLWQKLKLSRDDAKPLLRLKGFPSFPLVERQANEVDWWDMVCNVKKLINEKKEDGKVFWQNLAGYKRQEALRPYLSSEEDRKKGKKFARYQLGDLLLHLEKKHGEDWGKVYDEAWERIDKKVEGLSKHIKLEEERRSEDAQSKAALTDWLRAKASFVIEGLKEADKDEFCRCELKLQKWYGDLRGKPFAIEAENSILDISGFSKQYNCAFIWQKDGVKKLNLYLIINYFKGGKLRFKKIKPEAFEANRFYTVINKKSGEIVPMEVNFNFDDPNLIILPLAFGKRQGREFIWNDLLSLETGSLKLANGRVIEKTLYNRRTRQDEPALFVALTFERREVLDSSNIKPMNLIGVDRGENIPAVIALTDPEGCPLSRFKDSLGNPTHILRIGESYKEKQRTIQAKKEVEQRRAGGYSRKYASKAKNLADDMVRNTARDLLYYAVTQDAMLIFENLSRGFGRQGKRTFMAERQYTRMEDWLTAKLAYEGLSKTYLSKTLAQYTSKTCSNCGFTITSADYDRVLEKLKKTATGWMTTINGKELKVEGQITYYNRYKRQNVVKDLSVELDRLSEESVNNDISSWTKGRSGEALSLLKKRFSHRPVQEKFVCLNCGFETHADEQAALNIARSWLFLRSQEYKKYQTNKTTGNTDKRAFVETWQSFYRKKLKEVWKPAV
Test: cell_activity; high dose; about 25% greater at low dose; PAM not stated for this spacer
Procedure: Cells were nucleofected with the indicated doses of p59 plasmids encoding CasX 491, the scaffold, and spacer 11.30 (5' […] 3', SEQ ID NO: 17) targeting mRHO. […] Cells were nucleofected with the indicated doses of p59 plasmids encoding CasX 491, the scaffold, and spacer 12.7 (5' […]-GUUU 3', SEQ ID NO: 1146) targeting repeat elements preventing expression of the tdTomato fluorescent protein. Editing was assessed 5 days post-transfection by FACS, to quantify the fraction of tdTomato positive cells.

B1: sgRNA scaffold 235 + spacer 12.7 ; tdTomato locus target (spacer 12.7 protospacer) (ssRNA ; dsDNA)
RNA: ACUGGCGCUUCUAUCUGAUUACUCUGAGCGCCAUCACCAGCGACUAUGUCGUAGUGGGUAAAGCCGCUUACGGACUUCGGUCCGUAAGAGGCAUCAGAGCUGCAUUCUAGUUGUGGUUU
DNA 1: CTGCATTCTAGTTGTGGTTT
DNA 2: AAACCACAACTAGAATGCAG
activity: ~35 % greater than scaffold 174
